Series [1] concerns the molecule itself. Description: AUC; sedimentation velocity; 50 mM Tris pH 8.0, 150 mM NaCl, 20 °C, 30,000 or 45,000 rpm; c(s) and c(s,ff0) models in SEDFIT; samples at 3-9.2 µM.
Series [2] concerns the target rabbit skeletal muscle actin (RMA), filamentous (F-actin) (rabbit, UniProt P68135 1-377). Kind of series: co-sedimentation; high-speed actin cosedimentation: a range of concentrations of Crn1 variant with a fixed concentration of pre-polymerized actin filaments in F-buffer, room temperature 30 min, 100,000 x g 20 min at 25°C; bound against free coronin fitted with the Hill equation. Particulars: both partners purified.

Series [3] concerns the molecule itself. Kind of series: SEC + other: negative-stain transmission electron microscopy; Superdex 200 increase 10/30 column in a pH 8 Tris-buffer with 150 mM NaCl; TEM of 1 µM protein in F-buffer.

Where “and” joins values, the source holds several entries; their conditions need not be identical. Identical values can stand only once.

B1: Crn1 full-length (Crn1-FL), recombinant from E. coli (natural protein, S. cerevisiae, UniProt Q06440 1-651, looked up)
chain: MSGKFVRASKYRHVFGQAAKKELQYEKLKVTNNAWDSNLLKTNGKFIAVNWNASGGGAFAVIPIEEVGKAPDQVPLFRGHTAQVLDTDFDPFNDHRIASGSDDSKIGIWDIPENYKFHDHVDEDGEPIDIKPVKFLTGHARKVGHVLYHPVAENVLASSSGDYTVKLWNVETGKDMITLKHPDMVTSMSFSYDGNYLATVARDKKLRVWNIREEKIVSEGPAHTGAKNQRVVWLGNSDRLATTGFSKLSDRQIGIWDAFNIEKGDLGGFYTVDQSSGILMPFYDEGNKILYLVGKGDGNIRYYEFQNDELFELSEFQSTEAQRGFAVAPKRMVNVKENEVLKGFKTVVDQRIEPVSFFVPRRSEEFQEDIYPDAPSNKPALTAEEWFSGKSVEGPILVSMRSIYDGSAPSFHEAKRPQQPTTQETALEEKKEQPKVEKPISESEKEVKQEAPKSPSPLKSASSSSTINHVLKEDNSINKLLKKSSDIDQVNNAEDPSRDTSGWEEADDEPAPIKIETPVTPTETKKDRTPKVEPSKELKPEPVSIATDRKQEQSLPQEEKSSEKTKSPEQEKSATPPSSITAAKTAITASSKEEPSAARTSPKSLGLKKSVEKLSTLVLQLEDVVDKLTKANLDKDERLLKLEQKIGELSK
notes: Crn1 (coronin), S. cerevisiae, residues 1-651; Vector pET-21d(+)(pSY5) adds an 8x histidine tag and an HRV 3C protease site at the N-terminus; cleavage is not described; By AUC-SV a mix of monomers and tetramers; also called WT Crn1; source: E. coli Rosetta (DE3), purified (HisTrap, SEC when necessary)
For B1, the “stoichiometry N” value in series [1] worked out at 4. The molecule also had a Kd in series [2] of 240 nM.

B2: yeast purified full-length Crn1 (yCrn1-FL) (natural protein, S. cerevisiae, UniProt Q06440 1-651, looked up)
chain: B1 chain
notes: Crn1 (coronin), S. cerevisiae, full length; The text says C-terminal 6xHis-tagged, but names the vector as pGAL-ORF-3×StreptagII-9×His; source: S. cerevisiae (strain YMY2043, galactose-induced overexpression), purified (HisTrap)
Turning to B2, the “stoichiometry N” value in series [1] was 4 and 6.

B3: Crn1-ΔIDR (Crn1 lacking the IDR, aa 401-604) (natural protein, S. cerevisiae, UniProt Q06440 1-651, looked up)
chain: MSGKFVRASKYRHVFGQAAKKELQYEKLKVTNNAWDSNLLKTNGKFIAVNWNASGGGAFAVIPIEEVGKAPDQVPLFRGHTAQVLDTDFDPFNDHRIASGSDDSKIGIWDIPENYKFHDHVDEDGEPIDIKPVKFLTGHARKVGHVLYHPVAENVLASSSGDYTVKLWNVETGKDMITLKHPDMVTSMSFSYDGNYLATVARDKKLRVWNIREEKIVSEGPAHTGAKNQRVVWLGNSDRLATTGFSKLSDRQIGIWDAFNIEKGDLGGFYTVDQSSGILMPFYDEGNKILYLVGKGDGNIRYYEFQNDELFELSEFQSTEAQRGFAVAPKRMVNVKENEVLKGFKTVVDQRIEPVSFFVPRRSEEFQEDIYPDAPSNKPALTAEEWFSGKSVEGPILVSMLGLKKSVEKLSTLVLQLEDVVDKLTKANLDKDERLLKLEQKIGELSK
notes: Crn1 (coronin), S. cerevisiae, residues 1-651 with the IDR (401-604) deleted; made from the pSY5-Crn1-FL plasmid; source: E. coli Rosetta (DE3), purified (HisTrap, SEC when necessary)
As for B3, the binding result in series [3] was “binds”.

B4: Crn1ΔIDR-S (Crn1 with a short 40-aa middle fragment of the IDR) (natural protein, S. cerevisiae, UniProt Q06440 1-651, looked up)
chain: MSGKFVRASKYRHVFGQAAKKELQYEKLKVTNNAWDSNLLKTNGKFIAVNWNASGGGAFAVIPIEEVGKAPDQVPLFRGHTAQVLDTDFDPFNDHRIASGSDDSKIGIWDIPENYKFHDHVDEDGEPIDIKPVKFLTGHARKVGHVLYHPVAENVLASSSGDYTVKLWNVETGKDMITLKHPDMVTSMSFSYDGNYLATVARDKKLRVWNIREEKIVSEGPAHTGAKNQRVVWLGNSDRLATTGFSKLSDRQIGIWDAFNIEKGDLGGFYTVDQSSGILMPFYDEGNKILYLVGKGDGNIRYYEFQNDELFELSEFQSTEAQRGFAVAPKRMVNVKENEVLKGFKTVVDQRIEPVSFFVPRRSEEFQEDIYPDAPSNKPALTAEEWFSGKSVEGPILVSMSSDIDQVNNAEDPSRDTSGWEEADDEPAPIKIETPVTPTEPKSLGLKKSVEKLSTLVLQLEDVVDKLTKANLDKDERLLKLEQKIGELSK
notes: Crn1 (coronin), S. cerevisiae, residues 1-651 with 401-483 and 524-601 excluded by a two-step truncation of the full-length plasmid; short IDR 484-523 kept; By the stated limits residues 602-604 of the IDR stay in the construct; source: E. coli Rosetta (DE3), purified (HisTrap, SEC when necessary)
Consider B4, for which, in series [1], the “stoichiometry N” value is 3 and 6.

B5: Crn1-CC (C-terminal coiled-coil domain, aa 605-651) (domain or fragment, S. cerevisiae, UniProt Q06440 605-651, looked up)
chain: LGLKKSVEKLSTLVLQLEDVVDKLTKANLDKDERLLKLEQKIGELSK
notes: Crn1 (coronin), S. cerevisiae, residues 605-651, coiled-coil domain; made by truncating 401-604 from the Crn1-ΔN (401-651) plasmid; The introduction gives the CC domain as aa 600-651; also called CC domain; source: E. coli Rosetta (DE3), purified (HisTrap, SEC when necessary)
For the molecule B5, in series [1], the “stoichiometry N” value is approximately 15.

B6: Crn1-ΔN (IDR and CC domains, aa 401-651) (domain or fragment, S. cerevisiae, UniProt Q06440 401-651, looked up)
chain: RSIYDGSAPSFHEAKRPQQPTTQETALEEKKEQPKVEKPISESEKEVKQEAPKSPSPLKSASSSSTINHVLKEDNSINKLLKKSSDIDQVNNAEDPSRDTSGWEEADDEPAPIKIETPVTPTETKKDRTPKVEPSKELKPEPVSIATDRKQEQSLPQEEKSSEKTKSPEQEKSATPPSSITAAKTAITASSKEEPSAARTSPKSLGLKKSVEKLSTLVLQLEDVVDKLTKANLDKDERLLKLEQKIGELSK
notes: Crn1 (coronin), S. cerevisiae, residues 401-651 (IDR and CC domain); source: E. coli Rosetta (DE3), purified (HisTrap, SEC when necessary)
As to B6, the “stoichiometry N” value in series [1] is 4.

The stoichiometry N is a count of units in the complex or per binding partner. For orientation: Kd means the constant that tells how readily two partners part at equilibrium.

The record behind these values is paper doi:10.1101/2022.01.19.477021, “The Intrinsically Disordered Region of Coronins Fine-tunes Oligomerization and Actin Polymerization” (bioRxiv, 2022).
